How the values were obtained:
[1] = molecular target: T1, ROM1 (human rod outer segment membrane protein 1, N-terminal Strep3-GFP tag) (human, UniProt Q03395 1-351); assay: cryo-EM structure; PRPH2^C150S-ROM1 purified in 25 mM tris-HCl, 150 mM NaCl, pH 7.5, 0.025% DDM/CHS, incubated with an excess of Nanobody19, ~9 mg/ml; single-particle map at 3.7 A; conditions: both partners purified
T1 construct: rod outer segment membrane protein 1 (ROM1), human, full length; codon-optimized cDNA from GeneArt in a pUPE vector; Residues 323 to 351 were not modelled in the structure; also called retinal outer segment protein 1; source: HEK293T, transiently transfected together with PRPH2^C150S, solubilized in DDM/CHS, purified (Strep-Tactin, SEC); not shown: Strep3, N-terminal, kept

[2] = molecular target: T2, ROM1 (human rod outer segment membrane protein 1, wild type, N-terminal Strep3 tag) (human, UniProt Q03395 1-351); assay: cryo-EM structure; wild-type PRPH2-ROM1, one SEC fraction of heterogeneous complexes in 0.025% DDM/CHS, ~3.6 mg/ml; maps of tetramer, hexamer and octamer at ~7-8 A with the heterodimer docked in; the sizes count chains of PRPH2 and ROM1 together; conditions: both partners purified
T2 construct: rod outer segment membrane protein 1 (ROM1), human, full length; codon-optimized cDNA from GeneArt in a pUPE vector; source: HEK293T, transiently transfected together with PRPH2, solubilized in DDM/CHS, purified (Strep-Tactin, SEC); not shown: Strep3, N-terminal, kept

[3] = molecular target: the molecule itself; assay: SEC; PRPH2 and ROM1 (wild type or cysteine mutants) expressed in HEK293T, solubilized in DDM/CHS; Superdex 200 Increase 10/300 GL, 25 mM tris-HCl, 150 mM NaCl, pH 7.5, 0.025% DDM/CHS; no reducing agent
[4] = molecular target: T3, ROM1 (human rod outer segment membrane protein 1, N-terminal Strep3-GFP tag) (human, UniProt Q03395); assay: cryo-EM structure; PRPH2^C150S-ROM1 purified in 25 mM tris-HCl, 150 mM NaCl, pH 7.5, 0.025% DDM/CHS, incubated with an excess of Nanobody19, ~9 mg/ml; single-particle map at 3.7 A; conditions: both partners purified
T3 construct: rod outer segment membrane protein 1 (ROM1), human, full length; codon-optimized cDNA from GeneArt in a pUPE vector; Residues 323 to 351 were not modelled in the structure; also called retinal outer segment protein 1; source: HEK293T, transiently transfected together with PRPH2^C150S, solubilized in DDM/CHS, purified (Strep-Tactin, SEC); not shown: Strep3, N-terminal, kept

[5] = molecular target: T4, PRPH2^C150S-ROM1 heterodimer (human, UniProt P23942;Q03395, C150S, N-acetylglucosamine on Asn229 (density in the map); possible glycosylation at Asn53); assay: as above; conditions: both partners purified
T4 construct: peripherin-2 (PRPH2), human, full length; as m1; rod outer segment membrane protein 1 (ROM1), human, full length; as m2; Formed and purified before Nanobody19 was added; also called PRPH2^C150S-ROM1 complex; PRPH2-ROM1 heterodimer; source: HEK293T, transiently co-transfected, solubilized in DDM/CHS, purified (Strep-Tactin, SEC); not shown: Strep3, N-terminal, kept; copies: 1 + 1
T4 sequence (Q03395 whole entry, stated change not applied, one chain of several): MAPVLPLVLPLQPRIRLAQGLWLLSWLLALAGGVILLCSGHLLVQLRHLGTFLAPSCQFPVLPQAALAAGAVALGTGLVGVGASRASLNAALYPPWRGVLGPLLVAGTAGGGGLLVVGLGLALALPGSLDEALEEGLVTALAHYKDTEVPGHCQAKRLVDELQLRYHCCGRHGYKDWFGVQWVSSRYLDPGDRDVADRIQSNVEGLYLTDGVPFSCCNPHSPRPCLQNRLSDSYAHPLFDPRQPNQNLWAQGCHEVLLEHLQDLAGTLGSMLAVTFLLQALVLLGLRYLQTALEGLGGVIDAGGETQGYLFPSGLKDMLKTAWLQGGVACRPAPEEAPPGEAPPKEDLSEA

T2 sequence (Q03395 whole entry): as the sequence (Q03395 whole entry, stated change not applied, one chain of several) above

B1: PRPH2^C150S (human peripherin-2 with mutation C150S, N-terminal 6x-His tag) (natural protein, UniProt P23942 1-346, looked up)
chain: MALLKVKFDQKKRVKLAQGLWLMNWFSVLAGIIIFSLGLFLKIELRKRSDVMNNSESHFVPNSLIGMGVLSCVFNSLAGKICYDALDPAKYARWKPWLKPYLAICVLFNIILFLVALCCFLLRGSLENTLGQGLKNGMKYYRDTDTPGRSFMKKTIDMLQIEFKCCGNNGFRDWFEIQWISNRYLDFSSKEVKDRIKSNVDGRYLVDGVPFSCCNPSSPRPCIQYQITNNSAHYSYDHQTEELNLWVRGCRAALLSYYSSLMNSMGVVTLLIWLFEVTITIGLRYLQTSLDGVSNPEESESESQGWLLERSVPETWKAFLESVKKLGKGNQVEAEGADAGQAPEAG
modifications: N-acetylglucosamine on Asn229 (density in the map); possible glycosylation at Asn53
notes: peripherin-2 (PRPH2), human, full length; codon-optimized cDNA from GeneArt in a pUPE vector; Residues 322 to 346 were not modelled in the structure; source: HEK293T, transiently transfected together with ROM1, solubilized in DDM/CHS, purified (Strep-Tactin through ROM1, SEC)
[1]
  binding result: binds

B2: PRPH2 (human peripherin-2, wild type, N-terminal 6x-His tag) (natural protein, UniProt P23942 1-346, looked up)
chain: MALLKVKFDQKKRVKLAQGLWLMNWFSVLAGIIIFSLGLFLKIELRKRSDVMNNSESHFVPNSLIGMGVLSCVFNSLAGKICYDALDPAKYARWKPWLKPYLAICVLFNIILFLVALCCFLLRGSLENTLGQGLKNGMKYYRDTDTPGRCFMKKTIDMLQIEFKCCGNNGFRDWFEIQWISNRYLDFSSKEVKDRIKSNVDGRYLVDGVPFSCCNPSSPRPCIQYQITNNSAHYSYDHQTEELNLWVRGCRAALLSYYSSLMNSMGVVTLLIWLFEVTITIGLRYLQTSLDGVSNPEESESESQGWLLERSVPETWKAFLESVKKLGKGNQVEAEGADAGQAPEAG
notes: peripherin-2 (PRPH2), human, full length; codon-optimized cDNA from GeneArt in a pUPE vector; The tag is told for the oligomer preparation; source: HEK293T, transiently transfected together with ROM1, solubilized in DDM/CHS, purified (Strep-Tactin through ROM1, SEC)
[2]
  binding result: binds
[3]
  stoichiometry N: 2

B3: Nanobody19 (VHH)
VHH: QVQLQESGGGLVQAGGSLRLSCAASTRTTSRYTVGWFCQAPGKEREFVAAVHWSGGSTWYADSVKGRFTISRDNAKNTVYLQMNSLKQEDTAVYYCAAAEPRRYSYYMRPDEYNYWGQGTQVTVSS
notes: modelled in the deposited structure PDB 7ZW1; also called Nb19; source: E. coli BL21(DE3), purified (Ni-NTA, SEC)
[4]
  binding result: binds
[5]
  stoichiometry N: 1

From article PMC9645710, “Cryo-EM structures of peripherin-2 and ROM1 suggest multiple roles in photoreceptor membrane morphogenesis” (Science Advances, 2022)
